Measured values taken from patent US20100233157A1 (published 2010).
Changes are numbered by the printed parent chain. Each block holds one binder with its values, some of them ahead of it.

Key:
[1] = molecular target: T1, Human Fas (CD95) on the cell surface (human, UniProt P25445 26-335); assay: cell-based or functional assay
T1 sequence: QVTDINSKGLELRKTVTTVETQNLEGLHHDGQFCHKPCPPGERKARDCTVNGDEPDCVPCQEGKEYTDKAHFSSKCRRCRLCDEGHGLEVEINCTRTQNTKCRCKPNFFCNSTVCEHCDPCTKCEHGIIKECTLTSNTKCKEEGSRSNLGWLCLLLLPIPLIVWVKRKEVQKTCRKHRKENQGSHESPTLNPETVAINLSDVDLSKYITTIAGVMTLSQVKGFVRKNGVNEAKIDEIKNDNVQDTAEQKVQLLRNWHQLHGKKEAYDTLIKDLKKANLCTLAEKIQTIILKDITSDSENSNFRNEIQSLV

[2] = molecular target: T2, Chimpanzee Fas on the cell surface (chimpanzee, UniProt K6ZIR5 26-335); assay: flow cytometry on chimpanzee cells
T2 construct: also called Fas on chimpanzee B cell line
T2 sequence: T1 sequence with G26D, T135A, G150W, E264D, D272G

[3] = molecular target: T1, Human Fas (CD95) on the cell surface; assay: flow cytometry on SKW6.4 cells, FITC anti-human IgG secondary, geometric MFI after background subtraction
Protocol: (§1) Binding of F45D9-γ1 and F45D9-γ4 to the surface of Fas expressing Jurkat and SKW6.4 cells (from ATCC, Jurkat, clone E6-1, ATCC-TIB-152, Human T Leukemia cell line); SKW6.4 cells, ATCC-TIB-215, Human B lymphoblastoid cell line) was explored by immunofluorescence staining and flow cytometry analysis. Cells were cultured in RPMI 1640 medium (GIBCO, Cat. 3105205) supplemented with 2 mM glutamax (GIBCO), 100 UI/mL penicillin, 100 μg/mL streptomycin (Sigma) and 5-10% fetal bovine serum (GIBCO), at 37° C. and 5% CO₂. After washing in PBS Jurkat or SKW6.4 cells (0.2×10⁶ cells/well) were incubated in staining buffer (PBS/1% FBS) containing F45D9-γ1, F45D9-γ4 or human IgG control antibodies (Human IgG1, kappa, Sigma, Cat. I5154 or Human IgG4, kappa, Sigma, Cat. I4639) in a 96-well U-bottom plate for 30 min on ice, in a 100 ul/well volume. Cells were then washed once with staining buffer, and further incubated for 30 min on ice with 1:30 dilution of FITC-conjugated rabbit F(ab′)₂ anti-human IgG (DakoCytomation Cat. F0056). After washing and fixing with 1% formaldehyde in PBS cells were analyzed in a FACScan (Becton Dickinson, Mountain View, Calif.). The reactivity of F45D9-γ1 and F45D9-γ4 to the surface of Jurkat cells was quantified and Geometric Mean Fluorescence Intensity (MFI) after background subtraction (FIG. 1A) and histograms (FIG. 1B) are shown. […]

[4] = molecular target: T1, Human Fas (CD95) on the cell surface; assay: flow cytometry on Jurkat cells, FITC anti-human IgG secondary, geometric MFI after background subtraction
Protocol: as §1

[5] = molecular target: T3, Recombinant human soluble Fas receptor (PeproTech, Cat. 310-20) (human, UniProt P25445 17-173); assay: SPR (BIAcore 3000), soluble Fas immobilized on CM5 chip, antibody as analyte, bivalent analyte fit
T3 construct: Bought soluble form; also called sFas; rFas
T3 sequence (looked up): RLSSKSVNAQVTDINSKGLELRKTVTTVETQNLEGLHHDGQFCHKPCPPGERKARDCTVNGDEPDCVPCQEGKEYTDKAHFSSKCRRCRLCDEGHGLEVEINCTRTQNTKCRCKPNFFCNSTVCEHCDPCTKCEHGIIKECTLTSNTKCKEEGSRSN
Protocol: The interaction of F45D9 mAb's (γ-γ1 and γ4-isotypes) with immobilized soluble human Fas receptor was monitored by surface plasmon resonance detection using a BIAcore 3000 instrument. Recombinant human soluble Fas receptor (srFas) (PeproTech, cat. 310-20) was immobilized (concentration of 5 ug/ml in immobilization buffer: 10 mM sodium acetate pH 5.0) onto a CM5 sensor chip (BIAcore BR-1001-14) using an Amine Coupling kit (BIAcore, Cat. BR-1000-50), at a surface density of […] resonance units (RU). Deactivation of excess reactive groups on the chip surface was done by adding 1.0 M ethalonamine hydrochloride (pH 8.5). F45D9 mAb's-γ1 mAb were passed over the surface in equilibrium binding experiments at concentrations ranging from […] at a flow rate of 30 ul/min. Dilutions and binding experiments were conducted in 0.01 M HEPES (pH 7.4), 0.15 M NaCl, 3 mM EDTA, and 0.005% P-20 (BIAcore surfactant, BR-1001-88). Between each cycle 100 mM HCl was used to regenerate the surfaces at a flow rate 30 ul/min. KA and KD of F45D9 mAb's were-γ1 mAb was determined by fitting bivalentusing BIAcore models (BIAevaluation).

[6] = molecular target: T3, Recombinant human soluble Fas receptor …; assay: SPR (BIAcore 3000), soluble Fas immobilized on CM5 chip; antibody form and model not given
[7] = molecular target: T4, Cynomolgus macaque Fas on the cell surface (cynomolgus macaque, UniProt Q9TSN4 26-331); assay: flow cytometry, cynomolgus macaque B cell line
T4 construct: whole, on cells; also called Fas on cynomolgus macaque B cell line and PBL
T4 sequence (looked up): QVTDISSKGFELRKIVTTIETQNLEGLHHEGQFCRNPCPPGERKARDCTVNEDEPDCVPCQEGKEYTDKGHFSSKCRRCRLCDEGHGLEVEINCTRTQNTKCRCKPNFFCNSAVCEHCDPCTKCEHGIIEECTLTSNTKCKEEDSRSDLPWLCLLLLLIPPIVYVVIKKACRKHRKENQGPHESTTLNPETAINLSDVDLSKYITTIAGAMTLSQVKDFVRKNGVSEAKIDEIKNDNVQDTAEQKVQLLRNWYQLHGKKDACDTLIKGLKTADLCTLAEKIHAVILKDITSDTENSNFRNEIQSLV
Description: (§2) Reactivity of F45D9-γ1 or F45D9-γ4 mAb with Fas molecules of various species was initially screened using primary blood cells or lymphocytes cell lines. The binding of F45D9-γ1 or F45D9-γ4 mAb was explored by immunofluoresce staining and flow cytometry analysis, in human PBMC, purified human resting T cells, activated human T cells, peripheral blood lymphocytes (PBL) derived from BALE/c mice, rat, dog and pig, and in B cell lines or PBL derived from common marmoset, cynomolgus macaque, olive baboon, rhesus macaque and chimpanzee. Resting and activated human T cells were prepared as described in Example 7. B cells lines from monkeys were obtained from Biomedical Primate Research Center (Rijswijk, The Netherlands), and were cultured in RPMI 1640 medium supplemented with 2 mM glutamax, 100 UI/mL penicillin, 100 μg/mL streptomycin and 10% fetal bovine serum, at 37° C. and 5% CO₂. After washing in PBS cells (0.2−0.4×10⁶ cells/well) were incubated in staining buffer (PBS/1% FBS) containing F45D9-γ1 or human IgG control antibodies (10-20 ug/ml) in a 96-well U-bottom plate for 30 min on ice, in a 100 ul/well volume. Cells were then washed once with staining buffer, and further incubated for 30 min on ice with 1:30 dilution of FITC-conjugated rabbit F(ab′)₂ anti-human kappa (DakoCytomation Cat. F0434) or FITC-conjugated rabbit F(ab′)₂ anti-human IgG (DakoCytomation Cat. F0056). […]

[8] = molecular target: T5, Mouse Fas on the cell surface (mouse, UniProt P25446 22-327); assay: flow cytometry, peripheral blood lymphocytes of mice
T5 construct: whole, on cells; also called Fas on peripheral blood lymphocytes of BALB/c mice
T5 sequence (looked up): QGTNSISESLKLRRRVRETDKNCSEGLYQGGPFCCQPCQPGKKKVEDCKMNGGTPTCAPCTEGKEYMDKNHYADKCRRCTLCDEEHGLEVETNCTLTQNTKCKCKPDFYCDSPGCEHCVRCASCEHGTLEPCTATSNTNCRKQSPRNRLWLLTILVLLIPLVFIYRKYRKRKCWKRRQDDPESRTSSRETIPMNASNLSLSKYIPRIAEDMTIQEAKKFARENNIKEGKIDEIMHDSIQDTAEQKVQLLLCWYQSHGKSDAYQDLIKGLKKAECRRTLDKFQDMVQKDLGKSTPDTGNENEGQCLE
Description: as §2

[9] = molecular target: T6, Rat Fas on the cell surface (rat, UniProt Q63199 22-324); assay: flow cytometry, rat peripheral blood lymphocytes
T6 construct: whole, on cells; also called Fas on rat peripheral blood lymphocytes
T6 sequence (looked up): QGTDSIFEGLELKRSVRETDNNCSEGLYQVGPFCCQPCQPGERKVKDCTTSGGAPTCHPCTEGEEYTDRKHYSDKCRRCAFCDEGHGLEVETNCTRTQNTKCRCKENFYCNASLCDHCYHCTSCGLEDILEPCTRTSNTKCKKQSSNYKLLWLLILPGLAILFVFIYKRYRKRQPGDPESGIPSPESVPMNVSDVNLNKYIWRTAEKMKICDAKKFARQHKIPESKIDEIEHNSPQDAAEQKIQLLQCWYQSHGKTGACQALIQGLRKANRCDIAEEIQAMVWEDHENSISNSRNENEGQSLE
Description: as §2

[10] = molecular target: T7, Rhesus macaque Fas on the cell surface (rhesus macaque, UniProt Q9BDP2 26-333); assay: flow cytometry, rhesus macaque B cell line
T7 construct: whole, on cells
T7 sequence (looked up): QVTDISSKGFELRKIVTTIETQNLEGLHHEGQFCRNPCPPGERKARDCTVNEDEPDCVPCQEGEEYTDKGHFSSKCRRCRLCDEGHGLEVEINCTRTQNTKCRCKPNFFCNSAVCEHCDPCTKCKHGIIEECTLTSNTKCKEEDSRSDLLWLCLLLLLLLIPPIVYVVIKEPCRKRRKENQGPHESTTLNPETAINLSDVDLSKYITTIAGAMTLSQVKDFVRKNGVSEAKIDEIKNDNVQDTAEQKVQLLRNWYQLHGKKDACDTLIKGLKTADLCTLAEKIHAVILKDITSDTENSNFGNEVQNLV
Description: as §2

[11] = molecular target: T2, Chimpanzee Fas on the cell surface; assay: flow cytometry, chimpanzee B cell line
Description: as §2

[12] = molecular target: T8, Pig Fas on the cell surface (pig, UniProt O77736 17-332); assay: flow cytometry, pig peripheral blood lymphocytes
T8 construct: whole, on cells; also called Fas on pig peripheral blood lymphocytes
T8 sequence (looked up): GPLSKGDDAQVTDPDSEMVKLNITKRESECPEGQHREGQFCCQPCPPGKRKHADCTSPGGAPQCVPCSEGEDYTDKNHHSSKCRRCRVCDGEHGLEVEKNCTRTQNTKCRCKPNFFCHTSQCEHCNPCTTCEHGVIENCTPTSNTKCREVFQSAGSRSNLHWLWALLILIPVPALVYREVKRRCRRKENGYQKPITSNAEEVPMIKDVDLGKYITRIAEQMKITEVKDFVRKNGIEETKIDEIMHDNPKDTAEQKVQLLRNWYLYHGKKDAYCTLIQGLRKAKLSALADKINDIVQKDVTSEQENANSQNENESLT
Description: as §2

share of binding capacity on Jurkat cells at which complete blocking of FasL-induced apoptosis is achieved [1]: ≥ 12.5%
B1: F45D9-γ1 F(ab′)2 fragment (other)
VH: QVQLQQWGAGLLKPSETLSLICAVYGGSFSTYYWTWIRQPPGKGLEWIGEINHRGTTNYSPSLKSRVTISVDTSKNHISLNLTSVTAADTALYYCARGLLWIGEGDYGLDVWGQGTTVTVSS
VL: DIQMTQSPSSLSASVGDRVTITCRASQGIRRWLAWYQQKPEKAPKSLIYAASSLQSGVPSRFSGSGSGTDFTLTISSLQPEDFATYYCQQYNSYPYTFGQGTKLEIKR

binding result [2]: binds | EC50 (read off the curve) [3]: ~0.7 µg/mL | EC50 (read off the curve) [4]: ~0.6 µg/mL | IC50 of inhibition of rhFasL-induced apoptosis in SKW6.4 cells (Annexin-V/PI, flow cytometry) [1]: 200 pM | IC50 of inhibition of rhFasL-induced apoptosis in activated human T cells (Annexin-V/PI, flow cytometry) [1]: 20 pM | share of binding capacity on Jurkat cells at which complete blocking of FasL-induced apoptosis is achieved [1]: ≥ 12.5% | Kd [5]: 58.7 pM
B2: F45D9-γ4 mAb (recombinant human mAb T19/B5-1F9, gamma-4 isotype) (antibody, V domains shown)
VH: B1 VH
VL: B1 VL
notes: Whole human IgG4 (γ4P allotype vector pIESRαγ4P) with human kappa light chain, made in CHO DG44 cells; also called IgG4; T19/L22/B5-1F9

Ka [6]: 6.5e+09 M⁻¹ | Kd [6]: 153 pM | binding result [7]: no binding | binding result [8]: no binding (tested: 10-20 ug/ml) | binding result [9]: no binding (tested: 10-20 ug/ml) | binding result [10]: no binding | binding result [11]: binds | binding result [12]: no binding (tested: 10-20 ug/ml)
B3: F45D9 mAb (isotype not specified at the place) (antibody, V domains shown)
VH: B1 VH
VL: B1 VL
notes: also called F45D9 mAb's
